The values below come from paper PMC9352773.

For this assay, the target named is ScNtx-NT647, fluorescently labeled variant of ScNtx. As to the kind of experiment: MST; 5 nM ScNtx-NT647 held constant, Torpedo nAChR in asolectin-MSP1E3D1 nanodiscs titrated 0.5 nM to 1 μM; PBS pH 7.4, 0.05% Tween, 20 °C, high MST power, 4 % excitation power, triplicate; apparent affinity.

For “Torpedo muscle-type nicotinic acetylcholine receptor, native, purified, reconstituted in asolectin-MSP1E3D1 lipidic nanodiscs (from UniProt P02710 25-461; P02714 18-506; P02718 22-522; P02712 25-493) (complex)”, the Kd came to 28 nM.
